Measurements: the Human Domainome abundance scans (Beltran et al. 2025)

B1: Segment polarity protein dishevelled homolog DVL-3, residues 2 to 81; numbered along this chain, Q92997 (parent)
chain: GETKIIYHLDGQETPYLVKLPLPAERVTLADFKGVLQRPSYKFFFKSMDDDFGVVKEEISDDNAKLPCFNGRVVSWLVSA

Variants of: B1
Assay: abundance fitness (aPCA) (normalised: wild type 0, dead -1); higher = more abundant; growth selection in yeast, the domain comes from the species named
Details: Homo sapiens

Abundance fitness, by site and new letter:
P15: D -0.464, F -0.891, R -0.406, H -0.348, N -0.529, E 0.136, Q -0.064, L -0.654, G -0.47, A -0.142, S -0.078, Y -0.743, I -0.863, T -0.058, C -0.33
D10: E -0.016, P 0.002, I -0.831, H -0.568, M -0.822, L -0.848, S -0.68, C -0.709, N -0.507, F -0.677, V -0.726, T -0.471, W -0.866, A -0.513, K -0.791, R -0.696, G -0.709
V18: Y -0.589, I -0.025, D -0.694, R -0.717, H -0.298, M -0.247, F -0.707, G -0.612, Q -0.872, C -0.558, L -0.054, T -0.33, K -0.601, A -0.264, W -0.643, S -0.906, N -0.329, E -0.68
P21: N 0.003, D -0.253, K -0.449, L -0.758, H -0.196, T -0.592, R -0.575, C -0.391, M -0.426, A -0.169, S -0.313, F -0.588, W -0.712, G -0.56, E -0.293, Y -0.693, Q -0.269, V -0.789, I -0.561
G11: Q -0.322, L -0.389, W -0.466, C -0.333, F -0.586, A -0.356, E -0.112, M -0.617, V -0.919, S -0.262, D 0.192, Y -0.391, N 0.095, P -0.668, H -0.471, K -0.384, T -0.418, I -1.06, R -0.435
H8: W 0.027, V -0.494, Q -0.747, T -0.503, R -0.326, P -0.225, I -0.681, K -0.548, E -1.06, A -0.772, F 0.23, S -0.617, L -0.542, Y 0.19, G -0.668, N -0.661, M -0.455, C -1.19
L17: K -0.367, R -0.337, F 0.328, N -0.482, C 0.347, E 0.75, D -0.677, P -0.907, I 0.447, W 0.022, A -0.098, H 0.335, M 0.428, T 0.479, G -0.434, Y 0.258, S 0.245, Q 0.271
E2: R -0.579, M -0.281, W -0.121, T -0.079, N 0.052, L -0.341, H -0.164, S -0.082, Y -0.049, D -0.516, V -0.129, Q -0.194, K -0.723, G -0.62, P -0.491
K19: M 0.058, I 0.314, H -0.07, P -0.797, R -0.132, T 0.271, N -0.133, A -0.143, E -0.034, Q -0.297, D -0.547, V 0.383, F -0.215, G -0.635, S 0.157, Y -0.154, C -0.024, W -0.357
Y16: K 0.074, C 0.041, I 0.216, L 0.025, E -0.167, V -0.115, A -0.593, M 0.096, F -0.082, H 0.23, W -0.572, P -0.869, T -0.15, Q 0.16, D -0.708, S -0.213, N -0.157
I6: L -0.152, V -0.135, M -0.502, D -0.585, N -0.451, K -0.892, Y 0.248, H -0.076, R -0.728, T -0.132, S -0.431, G -0.625, E 0.153, F -0.015, P -0.816, A -0.578, C -0.467, Q -0.28
Y7: D -0.947, W -0.869, C -0.663, V -0.37, Q -0.975, S -0.884, P -0.806, L -0.735, E -0.608, T -0.731, H -0.78, K -0.749, N -0.636, G -0.833, I -0.74, A -0.882, R -0.811
E13: Y -0.526, I -0.184, P -0.011, F -0.549, H -0.473, M -0.047, W -0.351, N -0.222, A -0.183, K 0.064, G -0.348, T -0.129, C -0.251, S -0.107, L -0.42, D -0.129, R -0.092, Q -0.034, V -0.426
T3: M -0.683, P -0.509, R -0.665, K -0.635, G -0.853, E -0.638, F -0.452, N -0.822, A -0.684, D -0.448, S -0.633, H -0.831, I -0.962, L -0.727, C -0.59, Q -1.05
T14: M -0.265, P -0.129, C -0.112, L -0.328, S -0.104, Q 0.114, I 0.024, D 0.038, H 0.281, R 0.096, A -0.123, K 0.286, V -0.128, G -0.296, E 0.215, W -0.529, Y -0.955, F -0.092, N -0.049
L9: R -0.704, E -0.546, A -0.518, V 0.167, Y -0.581, H -1.14, K -0.574, N -0.888, I 0.163, G -0.622, P -0.695, Q -0.825, M -0.283, D -0.535, S -0.366, T -0.767, F -0.575, C -0.528
Q12: L -0.305, T -0.106, I 0.083, V -0.012, H 0.134, C 0.126, E 0.219, K -0.088, N 0.269, Y -0.019, F -0.227, P -0.638, A -0.129, D 0.386, S 0.263, R -0.053, W -0.612, G 0.129, M 0.063
I5: T -0.437, V -0.265, K -1.16, P -0.543, L -0.698, M -0.803, R -0.784, D -0.973, G -0.643, N -0.916, S -0.765, C -0.535, W -0.625, A -0.837, Y -0.969, H -0.514, E -0.767, F -0.815
L20: K -0.666, Q -1.09, T -0.836, D -0.68, V 0.104, R -0.779, E -0.615, G -0.625, F -0.336, P -0.954, C -0.632, W -0.472, A -1.06, S -0.664, M -0.679, I 0.101
